Data published in publication PMC6160412 (2018).

B1: human Nrxn1β LNS domain (–S4), wild type (domain or fragment)
chain: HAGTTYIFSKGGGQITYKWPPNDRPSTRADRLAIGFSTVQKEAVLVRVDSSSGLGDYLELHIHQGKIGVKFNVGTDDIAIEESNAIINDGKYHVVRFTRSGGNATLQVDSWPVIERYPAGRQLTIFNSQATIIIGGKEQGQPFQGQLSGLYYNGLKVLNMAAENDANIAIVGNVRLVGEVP
B2: LRRTM2 (protein)
chain: CPPKCRCEKLLFYCDSQGFHSVPNATDKGSLGLSLRHNHITALERDQFASFSQLTWLHLDHNQISTVKEDAFQGLYKLKELILSSNKIFYLPNTTFTQLINLQNLDLSFNQLSSLHPELFYGLRKLQTLHLRSNSLRTIPVRLFWDCRSLEFLDLSTNRLRSLARNGFAGLIKLRELHLEHNQLTKINFAHFLRLSSLHTLFLQWNKISNLTCGMDWTWSTLEKLDLTGNEIKAIDLTVFETMPNLKILLMDNNKLNSLDSKILNSLKSLTTVGLSGNLWECSPRVCALASWLGSFQGRWEHSILCHSPDHTQGEDILDAVHGFQLCWNLSTTVTAMATTYRDPTTEYTKISSSSYHVGDKEIPTTAGIAVTTEEHFPEPDNAIFTQRVITGTMALLFSFFFIIFIVFISRKCCPPTLRRIRQCSMIQNHRQLRSQTRLHMSNMSDQGPYNEYEPTHEGPFIIINGYGQCKCQQLPYKECEV

Experiments:
Test in all cases: SPR
[1] = target: human LRRTM2 LRR domain, D352A mutant (human, UniProt O43300 34-371, D352A)
[2] = target: human LRRTM2 LRR domain, F357Y mutant (human, UniProt O43300 34-371, F357Y)
Neurexin-1β (+S4) = Neurexin-1β (+S4) (Mus musculus, UniProt P0DI97)
Neurexin-1β (+S4), sequence (P0DI97 47-392): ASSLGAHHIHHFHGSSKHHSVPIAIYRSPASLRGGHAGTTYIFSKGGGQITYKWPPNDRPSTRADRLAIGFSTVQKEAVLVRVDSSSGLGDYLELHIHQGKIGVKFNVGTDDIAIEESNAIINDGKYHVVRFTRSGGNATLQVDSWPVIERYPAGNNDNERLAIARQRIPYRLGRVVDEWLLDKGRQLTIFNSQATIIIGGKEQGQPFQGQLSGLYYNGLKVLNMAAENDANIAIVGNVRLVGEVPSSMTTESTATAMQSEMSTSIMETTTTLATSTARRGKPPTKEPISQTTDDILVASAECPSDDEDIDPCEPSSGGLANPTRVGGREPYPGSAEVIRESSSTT

Binder	Kd [1]	Kd [2]	Kd (Neurexin-1β (+S4))
B1	> 34 µM	19.3 µM	
B2			> 80 µM
